No end group written: not given here.
T1: hTAFI (Homo sapiens, UniProt Q96IY4)
T1 sequence (Q96IY4 115-423): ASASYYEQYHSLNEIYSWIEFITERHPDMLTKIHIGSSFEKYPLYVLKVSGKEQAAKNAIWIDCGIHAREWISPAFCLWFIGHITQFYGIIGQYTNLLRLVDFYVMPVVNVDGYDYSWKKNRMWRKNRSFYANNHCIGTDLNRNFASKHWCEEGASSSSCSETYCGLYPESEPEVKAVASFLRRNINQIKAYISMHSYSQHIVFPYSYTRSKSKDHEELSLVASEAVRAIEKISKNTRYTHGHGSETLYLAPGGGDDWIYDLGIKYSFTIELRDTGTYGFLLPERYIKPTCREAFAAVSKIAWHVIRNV

T2: hCPB (Homo sapiens, UniProt P15086)
T2 sequence (P15086 111-417): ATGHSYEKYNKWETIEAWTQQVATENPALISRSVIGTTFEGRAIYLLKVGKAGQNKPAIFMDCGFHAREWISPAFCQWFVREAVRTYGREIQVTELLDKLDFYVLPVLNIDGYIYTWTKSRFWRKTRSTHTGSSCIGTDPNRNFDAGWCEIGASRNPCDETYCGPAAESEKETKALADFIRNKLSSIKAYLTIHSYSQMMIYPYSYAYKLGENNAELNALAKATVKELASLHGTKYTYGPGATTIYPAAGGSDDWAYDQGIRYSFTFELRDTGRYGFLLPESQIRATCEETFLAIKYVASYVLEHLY

T3: hCPZ (Homo sapiens (Human), UniProt Q66K79)
T3 chain: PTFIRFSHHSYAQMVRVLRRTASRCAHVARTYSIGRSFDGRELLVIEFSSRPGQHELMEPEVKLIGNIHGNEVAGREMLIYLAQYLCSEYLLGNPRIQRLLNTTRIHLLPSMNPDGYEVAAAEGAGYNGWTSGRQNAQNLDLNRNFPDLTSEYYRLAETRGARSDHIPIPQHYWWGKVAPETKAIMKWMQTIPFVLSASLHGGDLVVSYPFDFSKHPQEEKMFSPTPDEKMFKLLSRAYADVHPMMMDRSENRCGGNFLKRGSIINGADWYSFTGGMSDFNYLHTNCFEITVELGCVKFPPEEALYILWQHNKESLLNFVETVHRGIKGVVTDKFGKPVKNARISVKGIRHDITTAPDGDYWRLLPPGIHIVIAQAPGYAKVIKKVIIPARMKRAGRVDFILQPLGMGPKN

T4: hTAFI (Homo sapiens (Human), UniProt Q96IY4)
T4 chain: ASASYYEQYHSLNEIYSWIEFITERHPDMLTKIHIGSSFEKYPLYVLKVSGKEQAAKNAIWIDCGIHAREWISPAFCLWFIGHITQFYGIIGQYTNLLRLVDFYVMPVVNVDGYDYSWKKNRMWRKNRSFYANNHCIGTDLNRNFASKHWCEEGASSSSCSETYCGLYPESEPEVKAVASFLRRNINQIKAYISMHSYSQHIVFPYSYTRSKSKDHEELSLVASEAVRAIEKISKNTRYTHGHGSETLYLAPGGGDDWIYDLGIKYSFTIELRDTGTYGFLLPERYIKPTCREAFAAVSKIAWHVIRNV


Columns and labels:
hTAFI [1] = target: T1, hTAFI; test: Ki determination, tight-binding inhibition of metallocarboxypeptidase; type: biochemical; conditions: tight-binding equation fit; substrate AAFA 0.1mM; enzyme-inhibitor mixture not preincubated; 37 °C; means (n = 3) ± SD
Procedure: Inhibitory activities against CPA- and CPB-type forms (bovine and human variants of CPA1, CPA2, CPA4, CPB1, and TAFI) were assayed for all extracts, subject to the experimental conditions that enzyme (E), substrate (S) and inhibitor (I) concentrations as well as the [I]/[E] ratio and preincubation time followed the requirements for tight-binding inhibitor assays. Similar approaches were followed to measure the activities of proteases of different catalytic types, like pepsin, papain, trypsin and subtilisin [45, 46, 47, 48]. All assays were performed in triplicate at 25 °C in a multiplexed manner. For 96-well assays an iEMS spectrophotometer reader/dispenser FM (Labsystems, Finland) was used with a final reaction volume of 250 μL. […] The reactions were followed at 5 s intervals for 5 min and recorded as initial velocities. […]
The Ki values of natural and recombinant NvCI against bCPA1, hCPA1, hCPA2, rat CPA3, hCPA4, hCPB1, bTAFI, hTAFI, hCPD and hCPZ were determined by measuring the enzymatic residual activity (Vi/V0 = a) at different inhibitor concentrations and using a fixed enzyme and substrate concentrations as described above, where vi and v0 are the fraction of enzymatic activity in the presence and absence of inhibitor, respectively, in terms of initial velocities. […]

hCPB = target: T2, hCPB; test: as above; type: biochemical; conditions: tight-binding equation fit, equilibrium conditions; substrate AAFA 0.1mM; preincubation 15 min; 37 °C; means (n = 3) ± SD
Procedure: (§1) Inhibitory activities against CPA- and CPB-type forms (bovine and human variants of CPA1, CPA2, CPA4, CPB1, and TAFI) were assayed for all extracts, subject to the experimental conditions that enzyme (E), substrate (S) and inhibitor (I) concentrations as well as the [I]/[E] ratio and preincubation time followed the requirements for tight-binding inhibitor assays. Similar approaches were followed to measure the activities of proteases of different catalytic types, like pepsin, papain, trypsin and subtilisin [45, 46, 47, 48]. All assays were performed in triplicate at 25 °C in a multiplexed manner. For 96-well assays an iEMS spectrophotometer reader/dispenser FM (Labsystems, Finland) was used with a final reaction volume of 250 μL. For cuvette assays, a Cary 400 Bio spectrophotometer (Varian Inc., Palo Alto, CA, USA) spectrophotometer was used with a final reaction volume of 1 ml. The reactions were followed at 5 s intervals for 5 min and recorded as initial velocities. In the protease inhibition assays, mixtures of activity buffer, biological sample and enzyme were preincubated at 25 °C for 10min, before substrate addition. The assay conditions were as follows: for CPA-like enzymes, 7.0nM CPA, 0.1mM AAFP substrate in 20mM Tris-HCl pH 7.5, 500mMNaCl, 1% v/v dimethyl sulfoxide (DMSO), 0.05% w/v BRIJ-35 was used. For CPB-like enzymes, CPB 3.0nM CPB, 0.1mM AAFA substrate and activity buffer of 20 mM Tris-HCl pH [50].
The Ki values of natural and recombinant NvCI against bCPA1, hCPA1, hCPA2, rat CPA3, hCPA4, hCPB1, bTAFI, hTAFI, hCPD and hCPZ were determined by measuring the enzymatic residual activity (Vi/V0 = a) at different inhibitor concentrations and using a fixed enzyme and substrate concentrations as described above, where vi and v0 are the fraction of enzymatic activity in the presence and absence of inhibitor, respectively, in terms of initial velocities. The determination of Ki values was carried out on equilibrium conditions ([E0]/Ki ≤ 10), using a previously determined preincubation time of 15 min, required to establish enzyme-inhibitor equilibrium. Working temperature was 37 °C. The best estimates of Ki values were obtained by fitting the experimental data to the equation for tight-binding inhibitors by non-linear regression using the GraphPad Prisma 5 software (GraphPad Software, Inc., San Diego, CA, USA) at p < 0.05. The real Ki values against each of these A/B-type MCPs were calculated according to the equation described by Morrison and Copeland [19, 20].

[2] = test system: serine, cysteine and aspartic proteases; test: Inhibition of proteases of other catalytic types; type: biochemical; conditions: even at tenfold excess; pepsin, papain, trypsin and subtilisin assays, 25 °C, triplicate
Procedure: as §1, with “For CPB-like enzymes, CPB 3.0nM CPB, 0.1mM AAFA substrate and activity buffer of 20 mM Tris-HCl pH [50].” left out

hCPZ = target: T3, hCPZ; test: Ki, residual activity
hTAFI [3] = target: T4, hTAFI; test: Ki, residual activity

| Ki (hTAFI [1]) [nM] | Ki (hCPB) [nM] | Kd (hCPZ) [nM] | Kd (hTAFI [3]) [nM] | Molecule | inhibition of serine, cysteine and aspartic proteases [2] |
| --- | --- | --- | --- | --- | --- |
| 0.393 ± 0.0219 | 0.111 ± 0.0047 | – | – | NvCI: 53-residue, three-disulphide proteinaceous metallocarboxypeptidase inhibitor from the marine snail Nerita versicolor; major isoform; UniProt P86912 (FHVPDDRPCINPGRCPLVPDATCTFVCKAADNDFGYECQHVWTFEGQRVGCYA; disulfide (positions not given here); also: three disulphides, pairing not given here; UniProt P86912 1-53, looked up) | unable to inhibit |
| – | – | > 1000 | 0.951 | NvCI (protein, disulfide (positions not given here); not fully specified (bridges); ends not checked) FHVPDDRPCINPGRCPLVPDATCTFVCKAADNDFGYECQHVWTFEGQRVGCYA | – |

Source: PMC6780499, “Characterization, Recombinant Production and Structure-Function Analysis of NvCI, A Picomolar Metallocarboxypeptidase Inhibitor from the Marine Snail Nerita versicolor” (Marine Drugs, 2019)
